For this series the following is noted: Kitasatospora aureofaciens, pH 7, CD, MOPS 30 mM, whole UniProt chain shown; for denaturant m value / denaturant midpoint (higher = more stable) / unfolding free energy: 25 °C.

B1: Guanyl-specific ribonuclease Sa wild type, P05798 (protein)
chain: DVSGTVCLSALPPEATDTLNLIASDGPFPYSQDGVVFQNRESVLPTQSYGYYHEYTVITPGARTRGTRRIITGEATQEDYYTGDHYATFSLIDQTC
On to B1, for which, for the setting “GdnHCl”, the denaturant m value turned out to be 2.43 kcal/mol/M, the “denaturant midpoint (higher = more stable)” value came to 2.99 M and the unfolding free energy was determined as 7.3 kcal/mol. Besides, where the note is “Urea”, the denaturant m value amounted to 0.96 kcal/mol/M, the “denaturant midpoint (higher = more stable)” value was determined as 6.06 M and the unfolding free energy came out at 5.8 kcal/mol. Also, under “Thermal”, the Tm was 49.3 °C, the “heat capacity change of unfolding” value was determined as 1.52 kcal/mol/K and the “unfolding enthalpy (van 't Hoff)” value was determined as 93 kcal/mol.
